# Experimental data: patent US20200181248A1 (Chugai, published 2020)
# B1: M6B1 (antibody, V domains shown)
# VH: EVQLVESGGDLVKPGGSLKLSCAASGFTFSSYAMSWVRQTPEKRLEWVAAINSNGGTTYYPDTMKDRFTISRDNAKNTLYLQMSSLRSEDSALYYCTRHNGGYENYGWFAYWGQGTLVTVSA
# VL: DIQMTQSPSSLSASLGGKVTITCKASQDINKNIIWYQHKPGKGPRLLIWYTSTLQPGIPSRFSGSGSGRDYSFSISNLEPEDIATYYCLQYDNLPRTFGGGTKLEIK
# Target: T1, soluble form of human GPC3 (lacking the C-terminal hydrophobic region 564-580, Flag-tagged, heparan sulfate … (human, UniProt P51654 25-563, heparan sulfate modification (smear-like band of 50 to 300 kDa)))
# T1 construct: also called soluble form of GPC3; purified soluble form of GPC3; not shown: Flag tag from vector pCXND2-Flag
# T1 sequence (P51654 25-563, form in doubt): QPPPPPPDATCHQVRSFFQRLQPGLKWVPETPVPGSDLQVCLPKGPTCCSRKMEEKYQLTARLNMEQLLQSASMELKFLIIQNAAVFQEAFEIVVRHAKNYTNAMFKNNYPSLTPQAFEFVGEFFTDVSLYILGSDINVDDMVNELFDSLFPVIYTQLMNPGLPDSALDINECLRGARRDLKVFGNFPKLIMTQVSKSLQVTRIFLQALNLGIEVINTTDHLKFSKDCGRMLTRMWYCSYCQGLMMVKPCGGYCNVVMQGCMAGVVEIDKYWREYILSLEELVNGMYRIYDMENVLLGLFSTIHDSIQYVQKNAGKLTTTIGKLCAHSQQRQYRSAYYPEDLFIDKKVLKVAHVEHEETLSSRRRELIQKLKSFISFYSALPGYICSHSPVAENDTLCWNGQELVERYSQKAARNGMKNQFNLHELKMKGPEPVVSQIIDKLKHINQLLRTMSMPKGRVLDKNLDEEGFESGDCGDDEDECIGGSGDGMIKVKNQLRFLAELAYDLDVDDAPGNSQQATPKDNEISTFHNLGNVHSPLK
# Assay: sandwich ELISA: the concentration varied is that of soluble GPC3 ('GPC3 hepa'); M6B1 coated as capture, biotin-labeled M18D4 as detection
binder,measurement,value
B1,EC50 (read off the curve),~0.02 µg/mL
